# Measured values: paper PMC11343034, “CDCA7 is an evolutionarily conserved hemimethylated DNA sensor in eukaryotes”
# T1: CDCA7L 322-454 (Homo sapiens, UniProt Q96GN5 322-454)
# T1 sequence: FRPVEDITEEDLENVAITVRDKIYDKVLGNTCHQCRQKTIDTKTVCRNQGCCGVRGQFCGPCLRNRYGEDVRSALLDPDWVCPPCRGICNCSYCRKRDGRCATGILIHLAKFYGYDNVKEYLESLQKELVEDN
# T2: C. gigas CDCA7 homolog (Crassostrea gigas, UniProt A0A8W8IWK5 1-264)
# T2 sequence: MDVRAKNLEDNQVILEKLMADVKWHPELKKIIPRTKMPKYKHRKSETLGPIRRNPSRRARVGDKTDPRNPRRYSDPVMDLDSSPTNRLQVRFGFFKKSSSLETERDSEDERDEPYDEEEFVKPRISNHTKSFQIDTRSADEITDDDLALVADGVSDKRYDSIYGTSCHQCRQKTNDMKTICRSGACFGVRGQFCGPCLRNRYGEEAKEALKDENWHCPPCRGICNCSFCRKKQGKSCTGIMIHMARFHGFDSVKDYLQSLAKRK
# T3: A. thaliana CDCA7 homolog (Arabidopsis thaliana, UniProt Q0WPT6 1-417)
# T3 sequence: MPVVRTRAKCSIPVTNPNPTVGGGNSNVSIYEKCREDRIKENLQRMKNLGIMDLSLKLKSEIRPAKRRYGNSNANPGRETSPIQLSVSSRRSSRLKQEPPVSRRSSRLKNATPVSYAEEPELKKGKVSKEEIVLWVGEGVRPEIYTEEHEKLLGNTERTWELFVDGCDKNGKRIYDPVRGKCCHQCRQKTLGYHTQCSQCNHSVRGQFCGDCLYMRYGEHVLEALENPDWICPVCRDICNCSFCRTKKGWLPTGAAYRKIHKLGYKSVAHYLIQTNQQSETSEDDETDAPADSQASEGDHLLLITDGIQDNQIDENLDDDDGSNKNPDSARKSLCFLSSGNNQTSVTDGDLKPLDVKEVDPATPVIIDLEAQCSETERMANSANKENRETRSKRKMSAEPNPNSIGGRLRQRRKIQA
# T4: N. vectensis CDCA7 homolog (Nematostella vectensis, UniProt A7SQU1 1-157)
# T4 sequence: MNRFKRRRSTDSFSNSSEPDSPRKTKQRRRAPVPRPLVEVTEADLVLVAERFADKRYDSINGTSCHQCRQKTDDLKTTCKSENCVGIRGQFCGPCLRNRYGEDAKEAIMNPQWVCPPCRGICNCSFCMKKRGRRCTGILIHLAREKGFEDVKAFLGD
# T5: hCDCA7 264-371 C339S (Homo sapiens, UniProt Q9BWT1 264-371, C339S)
# T5 sequence: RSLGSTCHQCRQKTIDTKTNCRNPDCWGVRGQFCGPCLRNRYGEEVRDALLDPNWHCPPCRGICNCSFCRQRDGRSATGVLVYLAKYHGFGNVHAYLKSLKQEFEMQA
# B1: 54-bp hemi-Me (F) (dsDNA)
# DNA 1: GCGGGTGATGGACCCTATACGCGGCCGCCCTGGAGAATCCCGGTGCCGCGGCCG
# DNA 2: CGGCCGCGGCACCGGGATTCTCCAGGGCGGCCGCGTATAGGGTCCATCACCCGC
# modifications: 5mC at 41,47,49,53 of strand 1
# B2: -62W free DNA (dsDNA)
# DNA 1: ATCAGAATCCCGGTGCCGAGGCCGCTCAATTGGTCGTAGACAGCTCTAGCACCGCTTAAACGCACGTACGCGCTGTCCCCCGCGTTTTAACCGCCAAGGGGATTACTCCCTAGTCTCCAGGCACGTGTCAGATATATACATCGAT
# DNA 2: ATCGATGTATATATCTGACACGTGCCTGGAGACTAGGGAGTAATCCCCTTGGCGGTTAAAACGCGGGGGACAGCGCGTACGTGCGTTTAAGCGGTGCTAGAGCTGTCTACGACCAATTGAGCGGCCTCGGCACCGGGATTCTGAT
# modifications: 5mC at 11 of strand 1
# B3: -64C free DNA (dsDNA)
# DNA 1: ATCAGAATCCCGGTGCCGAGGCCGCTCAATTGGTCGTAGACAGCTCTAGCACCGCTTAAACGCACGTACGCGCTGTCCCCCGCGTTTTAACCGCCAAGGGGATTACTCCCTAGTCTCCAGGCACGTGTCAGATATCGACATCGAT
# DNA 2: ATCGATGTCGATATCTGACACGTGCCTGGAGACTAGGGAGTAATCCCCTTGGCGGTTAAAACGCGGGGGACAGCGCGTACGTGCGTTTAAGCGGTGCTAGAGCTGTCTACGACCAATTGAGCGGCCTCGGCACCGGGATTCTGAT
# modifications: 5mC at 9 of strand 2
# Columns and labels:
# CDCA7L 322-454 = target: T1, CDCA7L 322-454; assay: pull-down; egg extract; Oligo EMSA: 20 mM Tris-HCl pH 7.5, 150 mM NaCl, 1 mM DTT, 0.05% NP-40, 10% glycerol, 4 C, 0.5 uM DNA; nucleosome EMSA: same with 50 mM NaCl, 0.1 uM nucleosome; details: protein: ivt; tags: 35S-Met; label: 5' biotin on strand 2; blunt
# C. gigas CDCA7 homolog = target: T2, C. gigas CDCA7 homolog; assay: pull-down; boiled extract; Oligo EMSA: 20 mM Tris-HCl pH 7.5, 150 mM NaCl, 1 mM DTT, 0.05% NP-40, 10% glycerol, 4 C, 0.5 uM DNA; nucleosome EMSA: same with 50 mM NaCl, 0.1 uM nucleosome; details: protein: ivt; tags: 35S-Met; label: 5' biotin on strand 2; blunt
# [1] = target: T3, A. thaliana CDCA7 homolog; assay: as above; details: protein: ivt; tags: 35S-Met; label: 5' biotin on strand 2; blunt
# [2] = target: T4, N. vectensis CDCA7 homolog; assay: as above; details: protein: ivt; tags: 35S-Met; label: 5' biotin on strand 2; blunt
# hCDCA7 264-371 C339S = target: T5, hCDCA7 264-371 C339S; assay: EMSA; free DNA preferred over nucleosome; Oligo EMSA: 20 mM Tris-HCl pH 7.5, 150 mM NaCl, 1 mM DTT, 0.05% NP-40, 10% glycerol, 4 C, 0.5 uM DNA; nucleosome EMSA: same with 50 mM NaCl, 0.1 uM nucleosome; details: protein: recombinant; tags: GST-SUMO removed; blunt
Binder,binding result (CDCA7L 322-454),binding result (C. gigas CDCA7 homolog),binding result [1],binding result [2],binding result (hCDCA7 264-371 C339S)
B1,binds,binds,binds,binds,
B2,,,,,binds
B3,,,,,binds
